T1: PfCSP_(71–104) (N-CSP construct) (Plasmodium falciparum, UniProt P19597)
T1 construct: Plasmodium falciparum circumsporozoite protein residues 71–104, cloned into a pETM-22 vector; pETM-22 adds, as far as I recall, an N-terminal thioredoxin and His6 with a 3C protease site; source: E. coli BL21(DE3), purified (HisTrap, SEC)
T1 chain: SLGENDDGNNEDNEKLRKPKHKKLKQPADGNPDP

T2: PfCSP_(81–98) peptide (Plasmodium falciparum, UniProt P19597)
T2 construct: Plasmodium falciparum circumsporozoite protein residues 81–98; Only residues 81–92 are resolved in the crystal structure; also called N-CSP peptide; source: synthetic peptide, bought: GenScript
T2 chain: EDNEKLRKPKHKKLKQPA


What was measured:
[1] = biological target: T1, PfCSP_(71–104) (N-CSP construct); assay: ELISA; PfCSP71–104 coated at 50 ng/well; mAb at 4.00, 1.00, 0.25 and 0.06 µg/ml; goat anti-human IgG-HRP; area under the curve; settings: both partners purified
[2] = biological target: PfCSP on the surface of live Pf NF54 sporozoites (Plasmodium falciparum NF54 (endogenous in sporozoites)) (UniProt P19597); assay: flow cytometry on cells; imaging flow cytometry (ImageStreamX Mk II) of live (propidium iodide-negative) Pf midgut sporozoites isolated from oocysts; mAb 1 µg/ml, 30 min 4°C, Cy5 anti-human IgG1
Sequence of PfCSP on the surface of live Pf NF54 sporozoites (Plasmodium falciparum NF54 (endogenous in sporozoites)) (P19597 19-374): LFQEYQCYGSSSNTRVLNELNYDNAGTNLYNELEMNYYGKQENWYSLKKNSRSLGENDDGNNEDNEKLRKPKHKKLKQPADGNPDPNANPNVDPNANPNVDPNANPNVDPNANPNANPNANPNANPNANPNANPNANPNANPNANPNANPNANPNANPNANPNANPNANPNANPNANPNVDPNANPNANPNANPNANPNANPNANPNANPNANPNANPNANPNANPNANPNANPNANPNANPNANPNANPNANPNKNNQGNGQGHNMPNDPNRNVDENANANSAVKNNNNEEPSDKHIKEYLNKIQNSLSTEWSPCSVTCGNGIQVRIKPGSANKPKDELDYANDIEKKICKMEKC

[3] = biological target: PfCSP on the surface of live Pf NF54 sporozoites (Plasmodium falciparum NF54 (endogenous in sporozoites)) (UniProt P19597); assay: flow cytometry on cells; imaging flow cytometry (ImageStreamX Mk II) of live (propidium iodide-negative) Pf salivary gland sporozoites; mAb 1 µg/ml, 30 min 4°C, Cy5 anti-human IgG1
[4] = biological target: T2, PfCSP_(81–98) peptide; assay: crystal structure; 5D5 Fab and PfCSP81–98 peptide mixed 1:5; 20% (wt/vol) PEG 3350, 0.2 M di-ammonium citrate; 1.85 Å; settings: both partners purified
[5] = biological target: T1, PfCSP_(71–104) (N-CSP construct); assay: SEC; 5D5 Fab complexed with PfCSP71–104 at 1:1 molar ratio, with or without 100-fold molar excess of heparin sodium salt; Superdex 200 Increase 10/300 GL; peak fractions on non-reducing SDS-PAGE; settings: both partners purified

Binder | binding result [1] | mAb-bound sporozoites (pos1) of tot1 262, Exp 1 [2] [sporozoites] | mAb-bound sporozoites (pos1) of tot1 728, Exp 2 [2] [sporozoites] | mAb-bound sporozoites (pos1) of tot1 1,456, Exp 3 [2] [sporozoites] | fold decrease in MFI of mAb-bound sporozoites against mAb 1210 [3] [fold] | mAb-bound sporozoites (pos1) of tot1 487, Exp 2 [3] [sporozoites] | mAb-bound sporozoites (pos1) of tot1 545, Exp 1 [3] [sporozoites] | mAb-bound sporozoites (pos1) of tot1 1096, Exp 3 [3] [sporozoites] | proportion of mAb-bound sporozoites [3] [%] | binding result [4] | binding result [5]
5D5 IgG (5D5 variable regions on human Igγ1 and Igκ, for non-yeast display experiments) (antibody, V domains shown, as the heavy chain of m1 (5D5 VH + human Igγ1-CH1); two residues that replace the two stop codons of the Fab heavy chain vector; human immunoglobulin gamma-1 constant region, the part after the Fab heavy chain through the CH2 and CH3 domains; as the light chain of m1 (5D5 VL + human Igκ); Chimeric human IgG1; detected with anti-human IgG1 or anti-human IgG secondary antibodies; also called mAb …) VH: QVHLQQSGGEVARPGASVKLSCKASGYTFTGYGLSWVKQRTGQGLEWIGEIYPRSGNTYYNEKFKGKATLTADKSSSTAYMELRSLTSEDSAVYFCARSWGNSSFVYWGQGTLVTVSA VL: SIVMTQTPKFLLVSAGDRVTITCKASQSVTNDVTWYQQKPGQSPKLLIYYASNRYTGVPDRFTGSGYGTDFTFTISTVQAEDLAVYFCQQDYSSPFTFGSGTKLEIK | binds | 67 | 229 | 366 | 2 | 82 | 176 | 316 | 27 | – | –
5D5 Fab expressed in HEK293F cells (complex glycan at H.Asn98) (Fab, V domains shown, murine mAb 5D5 VH cloned immediately upstream of human Igγ1-CH1; murine mAb 5D5 VL cloned immediately upstream of human Igκ; Chimeric Fab (mouse variable, human constant domains); The crystal structure used this glycoform; also called HEK293F–expressed 5D5 Fab; source: HEK293F, transient cotransfection, purified (KappaSelect, MonoS, SEC)) VH: QVHLQQSGGEVARPGASVKLSCKASGYTFTGYGLSWVKQRTGQGLEWIGEIYPRSGNTYYNEKFKGKATLTADKSSSTAYMELRSLTSEDSAVYFCARSWGNSSFVYWGQGTLVTVSA VL: SIVMTQTPKFLLVSAGDRVTITCKASQSVTNDVTWYQQKPGQSPKLLIYYASNRYTGVPDRFTGSGYGTDFTFTISTVQAEDLAVYFCQQDYSSPFTFGSGTKLEIK | – | – | – | – | – | – | – | – | – | binds | binds

Source: publication PMC7596816 (The Journal of Experimental Medicine, 2020)
